This note sets out measurements from US20150239933A1 (GEORGETOWN UNIVERSITY, published 2015).

B7: Human recombinant TUBB3 (other)
chain: MREIVHIQAGQCGNQIGAKFWEVISDEHGIDPSGNYVGDSDLQLERISVYYNEASSHKYVPRAILVDLEPGTMDSVRSGAFGHLFRPDNFIFGQSGAGNNWAKGHYTEGAELVDSVLDVVRKECENCDCLQGFQLTHSLGGGTGSGMGTLLISKVREEYPDRIMNTFSVVPSPKVSDTVVEPYNATLSIHQLVENTDETYCIDNEALYDICFRTLKLATPTYGDLNHLVSATMSGVTTSLRFPGQLNADLRKLAVNMVPFPRLHFFMPGFAPLTARGSQQYRALTVPELTQQMFDAKNMMAACDPRHGRYLTVATVFRGRMSMKEVDEQMLAIQSKNSSYFVEWIPNNVKVAVCDIPPRGLKMSSTFIGNSTAIQELFKRISEQFTAMFRRKAFLHWYTGEGMDEMEFTEAESNMNDLVSEYQQYQDATAEEEGEMYEDDEEESEAQGPK
notes: Bought protein; immobilised by amine coupling in SPR, in solution in the dot blot; also called tubulin β-3; Tubulin β-3

“And” between values parts separate entries of the source, which are not always exact repeats. Equal entries are not always repeated.

The target in experiment [1] is T1, gp120IIIB (HIV, UniProt P04578 33-511).
T1 construct: Bought protein
The experiment in a line: dot blot: 2 µg peptide spotted, 5 µg gp120IIIB in 20 mL, anti-gp120 antibody.
Method: Dot blot analysis: CTTs or Helix-A and -B peptides (2 μg each) were spotted on a nitrocellulose membrane and allowed to dry. […] The membranes were washed and then incubated with a mouse anti-gp120 antibody (1:1000; Immunodiagnostics, Inc.) or mouse anti-TUBB3 antibody (1:5000; Covance, NJ) in TBST for 2 hours. Membranes were washed and incubated in goat anti-mouse HP-conjugated secondary antibody (1:20,000; Jackson ImmunoResearch Laboratories, Inc., PA). Visualization of the bands was then accomplished by the addition of PIERCE® SUPERSIGNAL™ West Pico-Stable Peroxidase Solution and Luminol/Enhancer Solution (Pierce Biotechnology, Inc., Rockford, Ill.).
Following incubation with a corresponding HRP-conjugated secondary antibody 1 hour at RT, the immunocomplexes were visualized with chemiluminescence.

Experiment [2] deals with T2, assembled microtubules (containing ~25% of TUBB3) (porcine, UniProt F1S6M7 41-471).
T2 construct: also called assembled MTs; MTs
The experiment in a line: SPR Biacore T200, 60 sec injection of 10 uM over immobilised microtubules, reference-subtracted. In general terms: SPR reads the build-up and loss of mass on a sensor chip optically.

Experiment [3] has as its target B7. The experiment in a line: SPR (Biacore T200), recombinant TUBB3 amine-coupled to a CM5 chip, peptide as analyte at 625 nM to 20 µM.
Experiment [4] addresses T1, gp120IIIB. The experiment in a line: SPR Biacore T200, TUBB3 immobilised, 1:1 model; mean of two experiments.
Method: (§1) After ligand capture, the surfaces were deactivated by injecting 1 M ethanolamine for 720 sec at 10 μL/min. HBS-P (10 mM HEPES, pH7.4, 150 mM NaCl, 0.05% P-20) with 2 mM MgCl₂ used as the running buffer. Flow cell 1 on each chip was left empty and used for reference surface. […] Kinetic studies were performed by injecting different concentrations of the analytes in triplicate. The chip surface was regenerated by with 10 mM glycine pH 1.5 injected for 30 sec at a flow rate of 100 μL/min. Each sample was injected for 60 sec (contact time) followed by a dissociation time of 300 sec at a flow rate of 100 μL/min. Data was analyzed with BIACORE® T200™ Evaluation Software (version 1) to determine the equilibrium dissociation constant (KD) from a 1:1 binding model.
(§2) Recombinant TUBB3, tubulin dimer, and assembled MTs from bovine brains were immobilized on a BIACORE® CM5 chip by amine coupling. […] The kinetics of interaction was analyzed using a BIACORE® T200™ instrument. BiaEvaluation software was used to calculate binding affinities based on 1:1 binding model.
The target in experiment [5] is T3, gp120MN (HIV, UniProt P05877 32-513).
T3 construct: Bought protein; only its gp120 part would apply; also called GP-MN
The description is as above.
Method: as §1, §2

Experiment [6] has as its target T1, gp120IIIB. As to the kind of experiment: SPR Biacore T200, TUBB3 amine-coupled to CM5, gp120 3.13-100 nM as analyte, 1:1 model; one of two experiments.
Experiment [7] addresses T3, gp120MN. The description is as above.

B1: tubulin α1A/1B C-terminal tail (CTT) peptide, detyrosinated isoform (peptide)
peptide: EGEGEEEGEE
notes: Synthetic peptide from GenScript; also called α1A/1B detyrosinated isoform
For the molecule B1, the binding result in experiment [1] was “no binding”.

B2: tubulin α1A/1B C-terminal tail (CTT) peptide, more basic variant EGEGEEEGQQ (peptide)
peptide: EGEGEEEGQQ
notes: Synthetic variant peptide from GenScript; also called α1A/1B more basic
Turning to B2, the binding result in experiment [1] is “no binding”.

B3: tubulin α4 C-terminal tail (CTT) peptide, Δ2 isoform (peptide)
peptide: EDEDEGE
notes: Synthetic peptide from GenScript; also called α4 Δ2 isoform
As for B3, the binding result in experiment [1] is “no binding”.

B4: tubulin α4 C-terminal tail (CTT) peptide, tyrosinated isoform (peptide)
peptide: EDEDEGEEY
notes: Synthetic peptide from GenScript; also called α4 tyrosinated isoform
Turning to B4, the binding result in experiment [1] is listed as “no binding”.
In the case of RAKWNNTLKQIASK (Synthetic peptide from GenScript) [Helix-B peptide], in experiment [2], the “response (4-1) RU” value was 0.2 RU. Moreover, the binding result in experiment [3] is given as “no binding (tested: 20 µM)”.

B5: tubulin α1A/1B C-terminal tail (CTT) peptide, more basic variant EGEGEEEGQQQQ (peptide)
peptide: EGEGEEEGQQQQ
notes: as for B2
In the case of B5, the binding result in experiment [1] is reported as “no binding”.

B6: tubulin α1A/1B C-terminal tail (CTT) peptide, more basic variant EGEGEEEGQQQ (peptide)
peptide: EGEGEEEGQQQ
notes: as for B2
As to B6, the binding result in experiment [1] is given as “no binding”.
As for B7, the dissociation constant (Kd) (usually the equilibrium constant for the complex coming apart) in experiment [4] was 7.5 nM; in experiment [5], 740 nM; in experiment [6] it was 7.91 nM and 7.05 nM; in experiment [7], 901 nM and 579 nM.
Turning to EEEEGEDEA (Synthetic peptide from GenScript) [tubulin β2A/2B C-terminal tail (CTT) peptide], the binding result in experiment [1] is listed as “no binding”.

B8: tubulin α1A/1B C-terminal tail (CTT) peptide, tyrosinated isoform (peptide)
peptide: EGEGEEEGEEY
notes: Synthetic peptide from GenScript; also called α1A/1B tyrosinated isoform
Regarding B8, the binding result in experiment [1] is “no binding”.

B9: tubulin α4 C-terminal tail (CTT) peptide, detyrosinated isoform (peptide)
peptide: EDEDEGEE
notes: Synthetic peptide from GenScript; also called α4 detyrosinated isoform
For B9, the binding result in experiment [1] is on record as “no binding”.
